Consider 1 molecule from PMC4448125 (Nature communications, 2015).

For the assay, the target named is GST-tagged human eIF1AX (known as eIF1A), full length (human, UniProt P47813 1-144). As to the kind of experiment: pull-down.
Sequence of GST-tagged human eIF1AX (known as eIF1A), full length (P47813 whole entry): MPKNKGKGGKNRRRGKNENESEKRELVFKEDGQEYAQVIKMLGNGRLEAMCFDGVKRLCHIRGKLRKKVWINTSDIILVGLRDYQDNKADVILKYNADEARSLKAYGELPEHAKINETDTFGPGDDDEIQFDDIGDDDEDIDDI

B1: His-SMT3-tagged MID(432 ~ 575aa) of human Ago2 (domain or fragment)
chain: not shown
Take B1: the binding result is “binds”.
